Experiment [1] deals with T1, huBTLA as coated in the binding ELISA of Example 3 (tag not stated) (human, UniProt Q7Z6A9 31-157).
T1 construct: Detection was with anti-human IgG Fc
T1 sequence: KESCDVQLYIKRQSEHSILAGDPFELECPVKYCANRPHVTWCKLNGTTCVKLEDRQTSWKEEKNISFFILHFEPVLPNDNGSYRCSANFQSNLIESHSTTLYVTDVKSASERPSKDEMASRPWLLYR
Briefly: ELISA, plate coated with huBTLA, detection with goat anti-human IgG Fc-AP, OD405. As to the method:
(§1) BTLA binding of purified recombinant chimeric antibodies by ELISA: The huBTLA and rhesus monkey BTLA antigen binding ELISA was performed on the purified recombinant chimeric antibodies. Briefly, 384-well, clear flat bottom high binding plates (Corning, cat #3700) were coated overnight at 4° C. with 0.333 μg/mL of huBTLA or rhesus monkey BTLA in PBS. The following purified process was performed as described in ELISA binding assay in Example 2, except that the secondary antibody was goat anti human IgG Fc-AP (Southern Biotech, cat #2014-04).
(In an ELISA, binding on a coated surface is turned into a signal by an enzyme label.)

Experiment [2] deals with T2, human BTLA extracellular domain with C-terminal mouse IgG2a Fc tag (human; mouse, UniProt Q7Z6A9 31-157).
T2 construct: also called huBTLA with mIgG2a Fc tag; not shown: mouse IgG2a Fc, C-terminal
T2 sequence: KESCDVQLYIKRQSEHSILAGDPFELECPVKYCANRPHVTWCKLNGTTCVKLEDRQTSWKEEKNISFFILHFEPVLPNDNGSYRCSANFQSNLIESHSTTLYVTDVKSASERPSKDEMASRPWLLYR
Kind of experiment: blocking ELISA, huBTLA-mIgG2a Fc coated; competitor huHVEM-His (2 ug/ml). As to the method:
HVEM blocking by purified recombinant chimeric antibodies by ELISA: Human HVEM (huHVEM) blocking ELISA was performed on purified recombinant chimeric anti-BTLA antibodies. Briefly, 384-well, clear flat bottom high binding plates (Corning, cat #3700) were coated overnight at 4° C. with 0.333 μg/mL purified huBTLA with mIgG2a Fc tag in PBS (coating solution). After removing the coating solution, the plates were blocked by adding blocking buffer and incubated at 37° C. for 1 hour. Plates were then washed 3 times with wash buffer. Serial dilution of purified chimeric antibodies in PBS were added to individual well followed by incubation at 37° C. for 1 hour. Plates were washed 3 times with wash buffer. Then 30 μL per well of 2 μg/ml human HVEM with His tag (Sino Biological, cat #10334-H08H) in assay buffer was added into the reaction and incubated for 1 hour. Plates were washed 3 times with wash buffer. Then 30 μL per well of mouse anti-his-AP (Southern Biotech, cat: 4603-04) at 1:500 dilution in ELISA diluent was added, and incubated at 37° C. for 30 min, then the plates were washed 5 times with wash buffer and developed for 30 minutes with 30 μL per well of pNPP substrate. Plates were analyzed with a Bio-TEK at 405 nm. The blocking IC₅₀ value represents the antibody concentration that inhibited 50% of huHVEM binding to coated human BTLA.

The target in experiment [3] is T3, human BTLA (Uniprot Q7Z6A9) expressed on cells (human, UniProt Q7Z6A9 31-289). Kind of experiment: cell-based or functional assay.
The target in experiment [4] is T4, rhesus monkey BTLA extracellular domain protein with His tag (Sino Biological, cat #90250-C08H) (rhesus monkey, UniProt G7MKA9 31-157).
T4 construct: extracellular domain; Bought protein; also called His-tag-rhesus monkey BTLA; not shown: His tag
T4 sequence: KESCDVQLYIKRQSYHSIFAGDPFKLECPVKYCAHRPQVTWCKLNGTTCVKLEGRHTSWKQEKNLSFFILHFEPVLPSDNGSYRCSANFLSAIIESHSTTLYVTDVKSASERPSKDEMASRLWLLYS
Kind of experiment: ELISA, rhesus monkey BTLA coated at 0.333 ug/mL, anti-human IgG Fc-AP detection. As to the method:
as §1

Experiment [5] deals with T3, human BTLA (Uniprot Q7Z6A9) expressed …. Briefly: flow cytometry on huBTLA-overexpressing Expi293 cells, MFI. As to the method: Expi293 cells stably overexpressing huBTLA were incubated with the chimeric anti-BTLA antibodies 83F2 or 86B7 in PBS containing 0.5% BSA, 1 mM EDTA, and 0.1% sodium azide (FACS buffer) for 30 minutes at 4° C. The cells were washed, and then incubated with 10 nM phycoerythrin (PE) conjugated anti-Human Fc Ab (BioLegend, cat #409304) for 20 minutes at 4° C. Cells were washed and then analyzed by flow cytometry with Attune (ThermoFisher Scientific). Data were analyzed with FlowJo software. Antibody binding is represented as median fluorescence intensity (MFI).
FACS based binding assays of humanized anti-BTLA antibodies were performed as described above in Example 3.
For orientation: Flow cytometry measures light scatter and fluorescence of single cells or particles in a stream.

Experiment [6] concerns the target T1, huBTLA as coated in the binding ELISA …. Briefly: ELISA, huBTLA coated at 0.333 ug/mL, anti-human IgG Fc-AP detection. As to the method:
as §1

Experiment [7] has as its target T5, human BTLA extracellular domain with C-terminal 10xHis tag (human, UniProt Q7Z6A9 31-157).
T5 construct: also called HuBTLA-His; His-tag-huBTLA
T5 sequence: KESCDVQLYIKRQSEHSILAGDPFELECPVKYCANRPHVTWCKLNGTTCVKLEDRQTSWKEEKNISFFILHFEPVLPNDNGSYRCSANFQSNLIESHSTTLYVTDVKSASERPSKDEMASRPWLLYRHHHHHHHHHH
Kind of experiment: BLI (Octet RED96), antibody captured on AHC biosensor, His-tag-huBTLA in solution, 1:1 model. On the procedure: The following kinetic assay was performed using anti-human IgG Fc capture (AHC) biosensors (ForteBio) in kinetics buffer (PBS, 0.1% Tween-20 and 1% bovine serum albumin): (a) antibody (2 μg/mL) for 300 sec, (b) baseline for 120 sec, (c) association with purified His-tag-huBTLA (2.5, 0.5 and 0 μg/mL) and His-tag-rhesus monkey BTLA (Sino Biologcal, cat #90250-C08H) (2.5, 0.5 and 0 μg/mL) for 420 sec and (d) dissociation for 1200 sec. Data fitting and analysis was performed with Octet data analysis software 8.0 (ForteBio) using a 1:1 binding model after Savitzky-Golay filtering.
A general note: In BLI a coated tip is dipped into the sample, and binding shifts an interference pattern.

B1: chimeric anti-BTLA antibody 86B7 (antibody, V domains shown)
VH: QVTLKESGPGILQPSQTLSLTCSFSGFSLSTFGMGVSWIRQPSGKGLEWLAHIYWDDDKRFNPSLKSRLSISKDTSNNQVFLKITTVDTADTATYYCARGNWDGETYFDYWGQGTTLTVSS
VL: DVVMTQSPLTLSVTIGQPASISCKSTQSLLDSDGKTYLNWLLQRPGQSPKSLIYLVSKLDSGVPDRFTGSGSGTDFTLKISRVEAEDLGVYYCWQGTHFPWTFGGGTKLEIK
As a reminder, the EC50 (read off the curve) is the concentration needed to bring the measured effect to its halfway point. Broadly, the IC50 is the point on the concentration scale where inhibition reaches its midpoint. As a reminder, the EC50 is the concentration that produces a half-maximal response. The Kd is the constant that tells how readily two partners part at equilibrium. Broadly, the koff is the first-order rate constant of dissociation. For orientation: kon means the rate constant with which the complex forms. With B1, in experiment [1], the half-maximal effective concentration (EC50 (read off the curve)) is approximately 0.4 nM. Moreover, the IC50 in experiment [2] came out at 1.02 nM. Besides, in experiment [3], the “EC50 of recovery of IL-2 production, Raji-HVEM/primary human T cell coculture” value stood at 1.68 nM. Also, the midpoint of the response in experiment [4], the EC50, lay at 0.0559 nM. For the same molecule, in experiment [5], the “EC50 (read off the curve)” value is approximately 0.8 nM. In addition, in experiment [6], the EC50 was 0.0511 nM. In experiment [7], the Kd was found to be 0.257 nM, the koff was found to be 9.98e-05 s⁻¹ and the kon was 389000 M⁻¹ s⁻¹.

For the origin of these results see patent US20260035464A1 (STAIDSON BIOPHARMA, published 2026).
